Values joined by “and” are separate entries in the source; they are usually repeats but may differ in a detail not shown here. Equal entries are not always repeated.
Conditions: for Tm / heat capacity change of unfolding / unfolding enthalpy (calorimetric) / change of melting temperature, mutant - wild type (higher = more stable) / unfolding enthalpy (van 't Hoff): Thermal
[1] = Bos taurus, pH 4.4, DSC, Sodium acetate 25 mM, NaCl 100 mM, reversible: yes
[2] = Bos taurus, pH 4.8, DSC, Sodium acetate 25 mM, NaCl 100 mM, reversible: yes
[3] = Bos taurus, pH 5.3, DSC, Sodium acetate 25 mM, NaCl 100 mM, reversible: yes
[4] = Bos taurus, pH 7.55, DSC, Tris 0.09 M, reversible: yes
[5] = Bos taurus, pH 8, DSC, Sodium acetate 25 mM, NaCl 100 mM, reversible: yes
[6] = Homo sapiens, DSC, 1 X - PBS, Mg2+ 0.5 mM, structure 1AJE
[7] = Thermotoga maritima (strain ATCC 43589 / DSM 3109 / JCM 10099 / NBRC 100826 / MSB8), pH 6.5, 25 °C, GdnHCl, Fluorescence, sodium phosphate 50 mM, NaCl 20 mM, reversible: yes
[8] = Equus caballus, pH 6, 20 °C, GdnHCl, CD, MES 10 mM, NaCl 0.4 M, reversible: yes
[9] = Equus caballus, pH 7, 10 °C, GdnHCl, CD, sodium phosphate 0.1 M, reversible: yes
[10] = Equus caballus, pH 7, 10 °C, GdnHCl, Fluorescence, acetate/phosphate 50 mM/50 mM/
[11] = Equus caballus, pH 7, 22 °C, GdnHCl, Fluorescence, sodium phosphate 0.1 M, reversible: yes
[12] = Equus caballus, pH 7, 23 °C, GdnHCl, SAXS, Phosphate 100 mM, transition: 2
[13] = Equus caballus, pH 7, 25 °C, GdnHCl, DSC, cacodylic acid 0.03 M, NaCl 0.1 M, reversible: yes
[14] = Equus caballus, pH 12.7, 22 °C, GdnHCl, Fluorescence, NaOH, reversible: yes
[15] = Homo sapiens, pH 7.5, Differential Scanning Fluorimetry, PBS, transition: 2, structure 1DXX
[16] = Homo sapiens, pH 7.5, CD, Tris-HCl, NaCl, structure 1DXX
[17] = Homo sapiens, pH 7, CD, Phosphate 100 mM, NaCl 150 mM, structure 1DXX
[18] = Homo sapiens, pH 2.4, CD, glycine hydrochloride 20 mM, NaCl 1 M, reversible: yes, structure 1TTG
[19] = Homo sapiens, pH 7, CD, sodium phosphate 20 mM, NaCl 0.1 M, reversible: yes, structure 1TTG
[20] = Homo sapiens, pH 7, CD, sodium phosphate 20 mM, NaCl 1 M, reversible: yes, structure 1TTG
[21] = Homo sapiens, pH 5, 25 °C, Urea, CD, sodium acetate 50 mM, structure 1TTG
[22] = Drosophila melanogaster, pH 7.5, 15 °C, GdnHCl, CD, Tris-HCl, NaCl 50 mM, structure 1SAN
[23] = Bos taurus, pH 8, DSC, HEPES 50mM, NaCl 150mM, structure 1IHG
[24] = Bos taurus, pH 8, DSC, HEPES 50mM, NaCl 150mM
[25] = Bos taurus, pH 8, 30 °C, GdnHCl, CD, borate 10 mM, structure 1BP2
[26] = Rattus norvegicus, pH 8, 25 °C, Urea, Fluorescence, Tris-HCl 50 mM, MgCl2 4 mM, transition: 3, reversible: yes, structure 1QM4
[27] = Escherichia coli, pH 7, CD, phosphate 50 mM, reversible: yes
[28] = Homo sapiens, pH 7.6, CD, Sodium phosphate 20 mM, NaCl 0.1 M, reversible: no, structure 1OWA
[29] = Homo sapiens, pH 5, 25 °C, Urea, Fluorescence, Sodium acetate 50 mM, reversible: yes, structure 1TEN
[30] = Homo sapiens, pH 7.3, 25 °C, GdnHCl, Fluorescence, Na2HPO4/NaH2PO4 20 mM, structure 1TIT
[31] = Homo sapiens, pH 7.4, 25 °C, GdnHCl, CD, PBS, structure 1TIT

Peptidyl-prolyl cis-trans isomerase D K308A, P26882, sequence (P26882 whole entry K308A): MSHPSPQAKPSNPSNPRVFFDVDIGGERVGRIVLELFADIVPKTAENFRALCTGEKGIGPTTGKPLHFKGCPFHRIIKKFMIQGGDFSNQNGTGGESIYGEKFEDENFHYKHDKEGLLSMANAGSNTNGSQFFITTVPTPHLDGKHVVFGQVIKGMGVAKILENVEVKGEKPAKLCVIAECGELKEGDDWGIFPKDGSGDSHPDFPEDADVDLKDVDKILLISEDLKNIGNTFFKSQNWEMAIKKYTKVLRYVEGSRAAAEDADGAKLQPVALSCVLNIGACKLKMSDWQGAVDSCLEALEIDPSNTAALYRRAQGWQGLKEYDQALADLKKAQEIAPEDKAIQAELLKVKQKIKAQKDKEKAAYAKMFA
Peptidyl-prolyl cis-trans isomerase D K227A, P26882, sequence (P26882 whole entry K227A): as the sequence (P26882 whole entry K308A) above, with K227A, A308K counted along it
Carbonic anhydrase 2 wild type, P00921, sequence (P00921 whole entry): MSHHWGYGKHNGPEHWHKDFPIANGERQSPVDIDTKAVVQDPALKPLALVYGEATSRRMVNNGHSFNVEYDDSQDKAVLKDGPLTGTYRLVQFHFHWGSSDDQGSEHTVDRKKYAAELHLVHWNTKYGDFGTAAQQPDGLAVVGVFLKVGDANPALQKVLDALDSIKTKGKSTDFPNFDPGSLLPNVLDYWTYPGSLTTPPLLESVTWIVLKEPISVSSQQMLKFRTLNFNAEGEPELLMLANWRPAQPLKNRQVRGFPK
Homeotic protein antennapedia R306E|L310R|H317R|F318R, P02833 R306E L310R H317R F318R, sequence (P02833 whole entry R306E/L310R/H317R/F318R): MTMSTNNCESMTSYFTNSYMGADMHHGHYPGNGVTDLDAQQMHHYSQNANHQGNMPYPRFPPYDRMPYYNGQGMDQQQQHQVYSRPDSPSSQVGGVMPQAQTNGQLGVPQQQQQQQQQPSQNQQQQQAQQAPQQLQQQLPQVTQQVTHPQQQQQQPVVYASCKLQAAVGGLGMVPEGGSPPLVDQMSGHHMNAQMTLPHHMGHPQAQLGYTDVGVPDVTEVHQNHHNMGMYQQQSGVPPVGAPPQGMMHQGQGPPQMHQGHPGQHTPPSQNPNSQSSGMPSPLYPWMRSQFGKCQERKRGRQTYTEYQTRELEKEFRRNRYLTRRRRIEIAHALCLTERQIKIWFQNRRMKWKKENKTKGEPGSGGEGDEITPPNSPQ
Endo-1,4-beta-xylanase wild type, Q59962, sequence (Q59962 entry or part of it): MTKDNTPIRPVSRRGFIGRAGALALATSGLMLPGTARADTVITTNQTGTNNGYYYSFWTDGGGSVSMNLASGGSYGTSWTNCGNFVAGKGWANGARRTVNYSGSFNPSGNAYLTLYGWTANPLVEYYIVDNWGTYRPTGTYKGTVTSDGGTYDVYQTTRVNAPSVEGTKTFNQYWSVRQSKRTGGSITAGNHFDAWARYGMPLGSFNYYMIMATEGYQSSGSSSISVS
Fibronectin D1544N, P02751, sequence (P02751 whole entry D1544N): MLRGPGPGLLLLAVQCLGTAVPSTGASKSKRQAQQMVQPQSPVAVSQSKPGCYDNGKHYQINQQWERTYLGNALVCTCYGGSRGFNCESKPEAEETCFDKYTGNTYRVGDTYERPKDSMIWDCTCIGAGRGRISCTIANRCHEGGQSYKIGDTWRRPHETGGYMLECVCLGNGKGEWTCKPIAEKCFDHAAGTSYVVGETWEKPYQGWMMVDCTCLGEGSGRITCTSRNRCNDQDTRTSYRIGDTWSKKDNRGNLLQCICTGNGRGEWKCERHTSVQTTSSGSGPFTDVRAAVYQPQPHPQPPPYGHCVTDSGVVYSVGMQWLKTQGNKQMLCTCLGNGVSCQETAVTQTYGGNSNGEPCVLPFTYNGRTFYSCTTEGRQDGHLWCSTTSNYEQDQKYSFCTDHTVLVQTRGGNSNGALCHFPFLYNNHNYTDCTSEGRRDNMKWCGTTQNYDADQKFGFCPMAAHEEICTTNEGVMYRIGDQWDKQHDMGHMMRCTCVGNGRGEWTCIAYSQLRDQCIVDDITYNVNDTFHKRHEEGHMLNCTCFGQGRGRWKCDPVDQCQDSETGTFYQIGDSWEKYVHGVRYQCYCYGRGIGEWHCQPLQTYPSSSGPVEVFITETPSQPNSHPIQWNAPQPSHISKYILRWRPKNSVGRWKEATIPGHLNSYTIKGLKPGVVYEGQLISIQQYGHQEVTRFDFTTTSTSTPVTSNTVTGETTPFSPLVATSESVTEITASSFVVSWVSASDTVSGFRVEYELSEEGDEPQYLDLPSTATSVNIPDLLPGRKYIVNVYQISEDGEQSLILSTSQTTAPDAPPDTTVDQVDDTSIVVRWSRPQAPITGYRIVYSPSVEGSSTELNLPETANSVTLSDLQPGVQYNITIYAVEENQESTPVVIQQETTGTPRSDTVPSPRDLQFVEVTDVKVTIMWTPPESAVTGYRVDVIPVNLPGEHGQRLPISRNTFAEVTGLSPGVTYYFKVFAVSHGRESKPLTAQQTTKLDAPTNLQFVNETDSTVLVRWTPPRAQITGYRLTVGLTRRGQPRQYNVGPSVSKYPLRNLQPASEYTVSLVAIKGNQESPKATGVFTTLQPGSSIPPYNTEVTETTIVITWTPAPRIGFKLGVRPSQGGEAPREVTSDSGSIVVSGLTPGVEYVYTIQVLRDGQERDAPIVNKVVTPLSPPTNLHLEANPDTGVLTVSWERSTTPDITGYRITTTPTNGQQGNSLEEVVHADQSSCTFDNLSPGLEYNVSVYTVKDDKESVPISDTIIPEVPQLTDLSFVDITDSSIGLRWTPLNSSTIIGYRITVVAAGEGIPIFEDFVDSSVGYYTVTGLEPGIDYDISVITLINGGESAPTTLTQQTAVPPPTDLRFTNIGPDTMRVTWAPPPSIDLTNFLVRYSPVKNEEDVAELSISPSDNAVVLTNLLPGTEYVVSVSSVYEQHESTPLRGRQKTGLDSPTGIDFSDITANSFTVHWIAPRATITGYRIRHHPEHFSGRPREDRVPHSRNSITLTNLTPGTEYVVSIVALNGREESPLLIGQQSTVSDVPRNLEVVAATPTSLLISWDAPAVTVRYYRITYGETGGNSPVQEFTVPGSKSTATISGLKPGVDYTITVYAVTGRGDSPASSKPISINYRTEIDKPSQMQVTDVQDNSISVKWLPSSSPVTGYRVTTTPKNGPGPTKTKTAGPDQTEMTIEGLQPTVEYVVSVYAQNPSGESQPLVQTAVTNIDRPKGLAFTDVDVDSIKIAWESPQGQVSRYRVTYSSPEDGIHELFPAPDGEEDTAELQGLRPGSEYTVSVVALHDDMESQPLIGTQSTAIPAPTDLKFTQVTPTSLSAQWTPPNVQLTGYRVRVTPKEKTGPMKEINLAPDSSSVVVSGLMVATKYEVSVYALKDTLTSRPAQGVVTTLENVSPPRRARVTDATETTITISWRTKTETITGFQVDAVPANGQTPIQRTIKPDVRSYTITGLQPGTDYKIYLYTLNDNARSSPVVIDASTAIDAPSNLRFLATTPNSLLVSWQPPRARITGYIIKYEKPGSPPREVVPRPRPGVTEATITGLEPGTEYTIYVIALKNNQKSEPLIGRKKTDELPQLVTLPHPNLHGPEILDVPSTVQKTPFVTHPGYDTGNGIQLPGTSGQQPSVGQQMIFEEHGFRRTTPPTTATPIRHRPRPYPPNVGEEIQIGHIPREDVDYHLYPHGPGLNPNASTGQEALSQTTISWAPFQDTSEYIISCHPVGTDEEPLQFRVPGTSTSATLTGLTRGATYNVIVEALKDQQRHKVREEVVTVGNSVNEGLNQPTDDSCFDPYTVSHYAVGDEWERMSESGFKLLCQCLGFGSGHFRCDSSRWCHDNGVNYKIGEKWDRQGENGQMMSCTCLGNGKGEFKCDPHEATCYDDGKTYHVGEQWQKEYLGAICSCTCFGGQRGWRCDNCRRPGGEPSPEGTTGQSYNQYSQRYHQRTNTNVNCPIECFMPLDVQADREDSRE
S-adenosylmethionine synthase isoform type-1 R265H, P13444, sequence (P13444 whole entry R265H, canonical isoform): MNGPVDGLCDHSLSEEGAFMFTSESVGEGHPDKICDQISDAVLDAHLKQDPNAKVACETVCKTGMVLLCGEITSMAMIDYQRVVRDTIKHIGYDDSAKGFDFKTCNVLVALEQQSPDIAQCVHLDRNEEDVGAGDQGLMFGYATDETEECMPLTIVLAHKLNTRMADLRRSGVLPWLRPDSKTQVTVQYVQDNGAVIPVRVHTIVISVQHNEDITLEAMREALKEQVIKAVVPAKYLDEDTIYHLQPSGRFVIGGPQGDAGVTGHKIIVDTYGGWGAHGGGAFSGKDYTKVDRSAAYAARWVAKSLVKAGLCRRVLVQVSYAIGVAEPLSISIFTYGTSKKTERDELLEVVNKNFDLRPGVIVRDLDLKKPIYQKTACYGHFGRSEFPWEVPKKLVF
Cytochrome c wild type, P00004, sequence (P00004 whole entry): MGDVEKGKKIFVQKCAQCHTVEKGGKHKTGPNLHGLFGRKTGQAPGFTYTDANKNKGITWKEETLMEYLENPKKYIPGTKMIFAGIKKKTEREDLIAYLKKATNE
Cold shock-like protein wild type, O54310, sequence (O54310 whole entry): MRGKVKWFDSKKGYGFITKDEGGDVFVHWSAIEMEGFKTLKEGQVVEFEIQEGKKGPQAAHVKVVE
Cell division control protein 42 homolog T35A, P60953, sequence (P60953 whole entry T35A): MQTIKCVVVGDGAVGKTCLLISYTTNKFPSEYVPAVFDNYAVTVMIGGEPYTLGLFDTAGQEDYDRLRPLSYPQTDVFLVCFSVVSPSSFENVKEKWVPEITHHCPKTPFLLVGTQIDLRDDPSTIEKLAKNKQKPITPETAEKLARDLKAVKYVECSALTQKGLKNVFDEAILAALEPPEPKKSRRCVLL

## Carbonic anhydrase 2 wild type, P00921
[1]
  Tm: 39 °C
  heat capacity change of unfolding: 4 kcal/mol/K
[2]
  Tm: 48 °C
  heat capacity change of unfolding: 4 kcal/mol/K
[3]
  Tm: 56 °C
  heat capacity change of unfolding: 4 kcal/mol/K
[4]
  Tm: 62.5 °C
  heat capacity change of unfolding: 3.9 kcal/mol/K
[5]
  Tm: 64 °C
  heat capacity change of unfolding: 3.8 kcal/mol/K
  unfolding enthalpy (calorimetric): 190 kcal/mol

## Cell division control protein 42 homolog T35A, P60953
[6]
  Tm: 64.2 °C
  change of melting temperature, mutant - wild type (higher = more stable): 0.7 °C

## Cell division control protein 42 homolog wild type, P60953
Homo sapiens, DSC, 1 X - PBS, Mg2+ 0.5 mM
  Tm: 63.5 °C

## Cold shock-like protein wild type, O54310
[7]
  denaturant m value: 1.34 kcal/mol/M
  unfolding free energy: 3.35 kcal/mol

## Creatine kinase B-type wild type, P00567
Oryctolagus cuniculus, pH 7.4, 22 °C, GdnHCl, CD, Sodium phosphate 100 mM
  unfolding free energy: 6.94 kcal/mol
Oryctolagus cuniculus, pH 8, DSC, HEPES-NaOH 30 mM, reversible: no
  Tm: 55.9 °C

## Creatine kinase M-type wild type, P00563
Oryctolagus cuniculus, pH 8, DSC, Hepes-NaOH 30 mM, NaCl 0.1 M, reversible: No
  Tm: 53.7 °C and 53.8 °C

## Cytochrome c wild type, P00004
Equus caballus, pH 1.7, 20 °C, HCl, CD, HCl 9 mM
  unfolding free energy: 3.3 kcal/mol
Equus caballus, pH 4.9, 10 °C, GdnHCl, Fluorescence, sodium acetate 0.2 M
  unfolding free energy: 8.2 kcal/mol
[8]
  denaturant m value: 1.61 kcal/mol/M
  denaturant midpoint (higher = more stable): 1.27 M
  unfolding free energy: 2.04 kcal/mol
Equus caballus, pH 6.5, 25 °C, GdnHCl, CD, HCl 0.1 M, reversible: yes
  unfolding free energy: 12.7 kcal/mol
[9]
  denaturant m value: 3.8 kcal/mol/M and 3.2 kcal/mol/M
  unfolding free energy: 20.4 kcal/mol and 12.1 kcal/mol
[10]
  denaturant m value: 3.9 kcal/mol/M
  denaturant midpoint (higher = more stable): 2.67 M
  unfolding free energy: 10.4 kcal/mol
Equus caballus, pH 7, 21 °C, GdnHCl, Absorbance, phosphate 10 mM
  unfolding free energy: 8.5 kcal/mol
Equus caballus, pH 7, 21 °C, GdnHCl, CD, phosphate 10 mM
  unfolding free energy: 8.4 kcal/mol
Equus caballus, pH 7, 21 °C, GdnHCl, Fluorescence, phosphate 10 mM
  unfolding free energy: 7.4 kcal/mol
[11]
  denaturant midpoint (higher = more stable): 5 M
  unfolding free energy: 18 kcal/mol
[12]
  denaturant m value: 4.1 kcal/mol/M and 2.5 kcal/mol/M
  unfolding free energy: 10.7 kcal/mol and 7.2 kcal/mol
Equus caballus, pH 7, 25 °C, GdnHCl, Absorbance, cacodylate 0.03 M, KCl 0.1 M, reversible: yes
  unfolding free energy: 8.7 kcal/mol
[13]
  denaturant m value: 2 kcal/mol/M
  denaturant midpoint (higher = more stable): 2.54 M
  unfolding free energy: 6 kcal/mol
Equus caballus, pH 7, 25 °C, SDS, CD, Phosphate 50 mM
  unfolding free energy: 3.59 kcal/mol
[14]
  denaturant midpoint (higher = more stable): 2.6 M
  unfolding free energy: 3 kcal/mol

## Cytochrome c wild type, P62894
Bos taurus, pH 6.5, 25 °C, GdnHCl, CD, HCl 0.1 M, reversible: yes
  unfolding free energy: 15.4 kcal/mol

## Dystrophin, P11532 C10S C188S
Homo sapiens, pH 7, CD, NaH2PO4, NaCl, reversible: no, structure 1DXX
  Tm: 61 °C
Homo sapiens, pH 7, Fluorescence, NaH2PO4, NaCl, reversible: no, structure 1DXX
  Tm: 62.4 °C
Homo sapiens, pH 7, Urea, CD, NaH2PO4, NaCl, reversible: yes, structure 1DXX
  unfolding free energy: 9.81 kcal/mol
Homo sapiens, pH 7, Urea, Fluorescence, NaH2PO4, NaCl, reversible: yes, structure 1DXX
  unfolding free energy: 12.8 kcal/mol

## Dystrophin, P11532 L172H
[15]
  Tm: 42.1 °C
  change of melting temperature, mutant - wild type (higher = more stable): -1.28 °C

## Dystrophin, P11532 L427P
[16]
  Tm: 50 °C
  change of melting temperature, mutant - wild type (higher = more stable): -3.4 °C

## Dystrophin, P11532 Y231N
[17]
  Tm: 43 °C
  change of melting temperature, mutant - wild type (higher = more stable): -15 °C

## Endo-1,4-beta-xylanase wild type, Q59962
Streptomyces sp. S38, pH 7.5, DSC, MOPS 20 mM, NaCl 100 mM, reversible: No
  unfolding enthalpy (calorimetric): 108 kcal/mol and 125 kcal/mol and 127 kcal/mol

## Fibronectin D1544K, P02751
Homo sapiens, pH 2.4, CD, glycine hydrochloride 20 mM, NaCl 0.1 M, reversible: yes, structure 1TTG
  Tm: 69 °C
[18]
  Tm: 77 °C
[19]
  Tm: 70 °C
[20]
  Tm: 78 °C

## Fibronectin D1544N, P02751
[18]
  Tm: 82 °C
[19]
  Tm: 69 °C
[20]
  Tm: 80 °C

## Fibronectin P1619A, P02751
[21]
  ddG of mutation (higher = less stable): 0.42 kcal/mol

## Fibronectin P1624A, P02751
[21]
  ddG of mutation (higher = less stable): 0.21 kcal/mol

## Fibronectin Y1605F, P02751
Homo sapiens, pH 5, 25 °C, Urea, Fluorescence, Sodium acetate 50 mM, reversible: yes, structure 1TTG
  ddG of mutation (higher = less stable): -2.03 kcal/mol

## Homeotic protein antennapedia R306E|L310R|H317R|F318R, P02833 R306E L310R H317R F318R
[22]
  denaturant m value: 1.6 kcal/mol/M and 0.79 kcal/mol/M
  denaturant midpoint (higher = more stable): 2.14 M and 1.32 M

## MKLWFSTLKLKKAA [wild type]
Bacillus licheniformis, pH 5, Fluorescence, Sodium acetate 50 mM, reversible: no
  Tm: 65 °C
Bacillus licheniformis, pH 6, Fluorescence, Sodium phosphate 50 mM
  Tm: 64.7 °C
Bacillus licheniformis, pH 7, Fluorescence, Sodium phosphate 50 mM, reversible: yes
  unfolding enthalpy (van 't Hoff): 99.9 kcal/mol and 112 kcal/mol and 164 kcal/mol
Bacillus licheniformis, pH 9, Fluorescence, Sodium pyrophosphate 50 mM, reversible: yes
  Tm: 56.5 °C

## Peptidyl-prolyl cis-trans isomerase D K227A, P26882
[23]
  Tm: 45.2 °C
  change of melting temperature, mutant - wild type (higher = more stable): 0.12 °C
  unfolding enthalpy (calorimetric): 159 kcal/mol

## Peptidyl-prolyl cis-trans isomerase D K308A, P26882
[23]
  Tm: 45 °C
  change of melting temperature, mutant - wild type (higher = more stable): -0.07 °C
  unfolding enthalpy (calorimetric): 155 kcal/mol

## Peptidyl-prolyl cis-trans isomerase D wild type, P26882
[24]
  Tm: 45.1 °C
  unfolding enthalpy (calorimetric): 165 kcal/mol

## Phospholipase A2 H70A, P00593
[25]
  ddG of mutation (higher = less stable): 3.1 kcal/mol
  denaturant m value: 1.02 kcal/mol/M
  denaturant midpoint (higher = more stable): 6.3 M
  unfolding free energy: 6.4 kcal/mol

## Phospholipase A2 H70Q, P00593
[25]
  ddG of mutation (higher = less stable): 0.6 kcal/mol
  denaturant m value: 1.34 kcal/mol/M
  denaturant midpoint (higher = more stable): 6.6 M
  unfolding free energy: 8.9 kcal/mol

## Phospholipase A2, major isoenzyme N111D, P00592
Sus scrofa, pH 7, 20 °C, GdnHCl, Absorbance, Tris 5 mM, reversible: yes, structure 1P2P
  unfolding free energy: 0.19 kcal/mol

## Phospholipase A2, major isoenzyme wild type, P00592
Sus scrofa, pH 7, 20 °C, GdnHCl, Absorbance, Tris 5 mM, reversible: yes
  unfolding free energy: 0 kcal/mol

## S-adenosylmethionine synthase isoform type-1 R265H, P13444
[26]
  denaturant m value: 1.15 kcal/mol/M
  denaturant midpoint (higher = more stable): 3.82 M
  unfolding free energy: 4.41 kcal/mol

## S-adenosylmethionine synthase isoform type-1 wild type, P13444
Rattus norvegicus, pH 8, 25 °C, Urea, Fluorescence, Tris-HCl 50 mM, MgCl2 4 mM, transition: 3, reversible: yes
  unfolding free energy: 6.12 kcal/mol and 4.41 kcal/mol

## Soluble cytochrome b562 A62G, P0ABE7
Escherichia coli, pH 5, 25 °C, Urea, Fluorescence, NaAc 50 mM, structure 6BQG
  ddG of mutation (higher = less stable): 0.57 kcal/mol

## Soluble cytochrome b562 wild type, P0ABE7
Escherichia coli, pH 7, 20 °C, Urea, CD, Potassium phosphate 50 mM, reversible: yes
  unfolding free energy: 6.6 kcal/mol and 3.2 kcal/mol
[27]
  heat capacity change of unfolding: 2.4 kcal/mol/K and 1.1 kcal/mol/K
  unfolding enthalpy (van 't Hoff): 94 kcal/mol and 53 kcal/mol

## Spectrin alpha chain, erythrocytic 1, P02549 A2023V
[28]
  Tm: 60.5 °C
  change of melting temperature, mutant - wild type (higher = more stable): -2 °C

## Tenascin, P24821 Y869A
[29]
  ddG of mutation (higher = less stable): -1.88 kcal/mol

## Tenascin, P24821 Y869F
[29]
  ddG of mutation (higher = less stable): -3.22 kcal/mol

## Titin C12723S|C12739S, Q8WZ42 C12723S C12739S
[30]
  ddG of mutation (higher = less stable): -3.2 kcal/mol
  denaturant m value: 2.8 kcal/mol/M

## Titin F12749L, Q8WZ42
[31]
  ddG of mutation (higher = less stable): 3.06 kcal/mol

## Titin I12699A, Q8WZ42
[31]
  ddG of mutation (higher = less stable): 2.89 kcal/mol

## Titin L12717A, Q8WZ42
[31]
  ddG of mutation (higher = less stable): 2.67 kcal/mol

## Titin L12736A, Q8WZ42
[31]
  ddG of mutation (higher = less stable): 5.27 kcal/mol
